Source: patent publication US20250051429A1 (Hoffmann-La Roche, published 2025)
Where a chain is given by its changes, count along the chain named. In names and notes the source's numbering stands.

B1: gantenerumab (antibody, human IgG1, V domains shown)
VH: QVELVESGGGLVQPGGSLRLSCAASGFTFSSYAMSWVRQAPGKGLEWVSAINASGTRTYYADSVKGRFTISRDNSKNTLYLQMNSLRAEDTAVYYCARGKGNTHKPYGYVRYFDVWGQGTLVTVSS
VL: DIVLTQSPATLSLSPGERATLSCRASQSVSSSYLAWYQQKPGQAPRLLIYGASSRATGVPARFSGSGSGTDFTLTISSLEPEDFATYYCLQIYNMPITFGQGTKVEIK
modifications: glycosylation site in heavy chain CDR2 (NAS); Fab glycosylation (CE-SDS) 30-80 %
notes: kappa light chain; also called parent antibody gantenerumab; wt: NAS
B2: mAb 675 (antibody, V domains shown)
VH: QVELVESGGGLVQPGGSLRLSCAASGFTFSSYAMSWVRQAPGKGLEWVSAINATGTRTYYADSVKGRFTISRDNSKNTLYLQMNSLRAEDTAVYYCARGKGSSGYVRYFDVWGQGTLVTVSS
VL: B1 VL
modifications: glycosylation site in heavy chain CDR2 (NAT); Fab glycosylation (CE-SDS) 100 %
notes: Variant of gantenerumab: heavy chain S53T (Kabat) and shortened heavy chain CDR3, wild-type light chain; Only variable domains are tied to the name; also called 142; gantenerumab VH NAT variant with wild-type light chain
B3: mAb 663 (antibody, V domains shown)
VH: B2 VH with N52Q, T54S
VL: B1 VL
modifications: no Fab glycosylation (CE-SDS 0 %)
notes: Variant of gantenerumab: heavy chain N52Q (Kabat) and shortened heavy chain CDR3, wild-type light chain; also called 143; gantenerumab VH QAS variant with wild-type light chain
B4: mAb 651 (antibody, V domains shown)
VH: B2 VH
VL: B1 VL with M95H
modifications: glycosylation site in heavy chain CDR2 (NAT); Fab glycosylation (CE-SDS) 100 %
notes: Variant of gantenerumab: heavy chain S53T, shortened heavy chain CDR3, light chain M95H (Kabat); also called 144
B5: mAb 638 (antibody, V domains shown)
VH: B2 VH with N52Q, T54S
VL: B1 VL with M95H
modifications: no Fab glycosylation (CE-SDS 0 %)
notes: Variant of gantenerumab: heavy chain N52Q, shortened heavy chain CDR3, light chain M95H (Kabat)

Molecular target: T1, human A-beta protein, fibrillar A-beta(1-40) coated for the ELISA (human)
T1 construct: also called Aβ1-40 fibers; fibrillar Aβ
T1 sequence (peptide, as listed by the source): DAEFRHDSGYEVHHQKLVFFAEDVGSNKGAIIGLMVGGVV
Test: ELISA, antibody on coated fibrillar A-beta(1-40)
Experimental: Binding of the antibodies to fibrillar Aβ is measured by an ELISA assay. Briefly, AD(1-40) is coated at 7 μg/mL in PBS onto Maxisorb plates for 3 days at 37° C. to produce fibrillar Abeta, and then dried for 3 h at RT. The plate is blocked with 1% CroteinC and 0.1% RSA in PBS (blocking buffer) for 1 h at RT, then washed once with wash buffer. Antibodies or controls are added at concentrations up to 100 nM in blocking buffer and incubated at 4° C. overnight. After 4 wash steps, constructs are detected by addition of anti-human-IgG-HRP (Jackson Immunoresearch) at 1:10,000 dilution in blocking buffer […], followed by 6 washes and incubation in TMB (Sigma). Absorbance is read out at 450 nm after stopping color development with 1 N HCl.

| EC50 | Binder |
| --- | --- |
| 0.2 nM | B1 |
| 0.2 nM | B2 |
| 0.2 nM | B3 |
| 4 nM | B4 |
| 0.2 nM | B5 |
